# Data reported in article PMC10267580.
# B1: Rab6B^Q72L, GTPase domain (residues 8-176), constitutively active mutant [mouse] / ELKS1_RBD, Rab-binding domain of ELKS1 (residues 849-922) [rat] (parent)
# chain 1: RKHLEEVLEMKQEALLAAISEKDANIALLELSSSKKKTQEEVAALKREKDRLVQQLKQQTQNRMKLMADNYEDD
# chain 2: GNPLRKFKLVFLGEQSVGKTSLITRFMYDSFDNTYQATIGIDFLSKTMYLEDRTVRLQLWDTAGLERFRSLIPSYIRDSTVAVVVYDITNLNSFQQTSKWIDDVRTERGSDVIIMLVGNKTDLADKRQITIEEGEQRAKELSVMFIETSAKTGYNVKQLFRRVASALPG
# Variants of: B1
# Experiment: ITC
# Conditions: with ELKS1_RBD
row,Kd [µM],Variant
1,> 50,chain 2 L4E

# Same assay, conditions: with Rab6B^Q72L
row,Kd [µM],Variant
1,26,chain 1 S20A
